Article PMC4722173, “Identification of the Elusive Pyruvate Reductase of Chlamydomonas reinhardtii Chloroplasts” (Plant and Cell Physiology, 2015)

Columns and labels:
His-tagged Cr-LDH1 [1] = target: T1, His-tagged Cr-LDH1 (Chlamydomonas reinhardtii, UniProt B0LUZ5); test: X-ray crystallography, […] Å; type: binding; settings: 300 µM NAD+ in protein solution before crystallization; active site of each monomer, near H378, R311, E340
T1 construct: residues 45-421, putative 44-residue chloroplast transit peptide removed, C-terminal His tag kept, codon-optimized synthetic gene, pET28b, E. coli KRX; 40 kDa, tetramer (about 200 kDa)
T1 sequence (B0LUZ5 45-421): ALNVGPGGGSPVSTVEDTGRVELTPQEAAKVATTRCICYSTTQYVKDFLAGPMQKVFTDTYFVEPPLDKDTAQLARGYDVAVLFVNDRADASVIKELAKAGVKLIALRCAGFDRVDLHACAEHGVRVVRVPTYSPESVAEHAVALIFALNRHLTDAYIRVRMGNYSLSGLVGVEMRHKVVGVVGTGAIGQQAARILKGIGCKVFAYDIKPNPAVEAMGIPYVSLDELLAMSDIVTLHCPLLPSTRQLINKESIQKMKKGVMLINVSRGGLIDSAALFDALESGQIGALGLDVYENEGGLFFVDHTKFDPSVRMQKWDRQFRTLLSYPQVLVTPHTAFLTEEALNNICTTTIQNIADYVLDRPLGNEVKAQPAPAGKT

His-tagged Cr-LDH1 [2] = target: T1, His-tagged Cr-LDH1; test: spectrophotometric NADH oxidation at […] nm; type: biochemical; settings: 300 µM NADH with pyruvate; pH 7.5; 25 °C; mere turnover
[3] = target: PFL1 (pyruvate formate lyase), endogenous, in Chlamydomonas reinhardtii whole-cell extract (Chlamydomonas reinhardtii (endogenous in whole-cell extract)); test: native gel or EMSA; 1D BN-PAGE of C. reinhardtii whole-cell extracts, immunoblot with Cr-LDH1 or PFL1 antibodies
[4] = target: His-tagged recombinant Cr-LDH1 (NAD+-dependent D-lactate dehydrogenase encoded by Cre07.g324550), residues 45-421 (Chlamydomonas reinhardtii); test: crystal structure; sitting drop, approximately 14.5 mg/ml protein with 300 µM NAD+, 20% PEG 3350, 200 mM potassium nitrate; 2.46 Å; tetramer as predicted by PISA
purified protein [5] = substrate: C[C@@H](O)C(=O)O; test: purified protein; settings: 300 µM NAD+, 25 mM sodium phosphate, 250 mM NaCl, pH 7.5, 25 °C
purified protein [6] = substrate: CC(=O)C(=O)O; test: purified protein; type: biochemical, Chlamydomonas reinhardtii; settings: 300 µM NADH, 25 mM sodium phosphate, 250 mM NaCl, pH 7.5, 25 °C, mean ± SD of two protein preparations
purified protein [7] = substrate: O=CC(=O)O; test: purified protein; type: biochemical, Chlamydomonas reinhardtii; settings: 300 µM NADH, 25 mM sodium phosphate, 250 mM NaCl, pH 7.5, 25 °C

Question: With `NC(=O)c1ccc[n+]([C@@H]2O[C@H](COP(=O)(O)OP(=O)(O)OC[C@H]3O[C@@H](n4cnc5c(N)ncnc54)[C@H](O)[C@@H]3O)[C@@H](O)[C@H]2O)c1` [NAD^+] as the molecule, how does the “X-ray crystallography, 2.46 Å” value (His-tagged Cr-LDH1 [1]) read?
Answer: NAD^+ molecules added during crystallization were observed in the active site of each monomer

Question: Which “spectrophotometric NADH oxidation at 340 nm” value (His-tagged Cr-LDH1 [2]) does the source give for `NC(=O)C1=CN([C@@H]2O[C@H](COP(=O)(O)OP(=O)(O)OC[C@H]3O[C@@H](n4cnc5c(N)ncnc54)[C@H](O)[C@@H]3O)[C@@H](O)[C@H]2O)C=CC1` [NADH] here?
Answer: preference for the reduction of pyruvate to D-lactate and a specificity for NADH

Question: Which stoichiometry N [3] does the source give for “PFL1 (pyruvate formate lyase), endogenous, in Chlamydomonas reinhardtii whole-cell extract (enzyme)” here?
Answer: 2

Question: Which stoichiometry N [4] does the source give for “His-tagged recombinant Cr-LDH1 (NAD+-dependent D-lactate dehydrogenase encoded by Cre07.g324550), residues 45-421 (enzyme)” here?
Answer: 4

B1: His-tagged Cr-LDH1 (Chlamydomonas reinhardtii) (protein)
chain: ALNVGPGGGSPVSTVEDTGRVELTPQEAAKVATTRCICYSTTQYVKDFLAGPMQKVFTDTYFVEPPLDKDTAQLARGYDVAVLFVNDRADASVIKELAKAGVKLIALRCAGFDRVDLHACAEHGVRVVRVPTYSPESVAEHAVALIFALNRHLTDAYIRVRMGNYSLSGLVGVEMRHKVVGVVGTGAIGQQAARILKGIGCKVFAYDIKPNPAVEAMGIPYVSLDELLAMSDIVTLHCPLLPSTRQLINKESIQKMKKGVMLINVSRGGLIDSAALFDALESGQIGALGLDVYENEGGLFFVDHTKFDPSVRMQKWDRQFRTLLSYPQVLVTPHTAFLTEEALNNICTTTIQNIADYVLDRPLGNEVKAQPAPAGKT
notes: residues 45-421, putative 44-residue chloroplast transit peptide removed, C-terminal His tag kept, codon-optimized synthetic gene, pET28b, E. coli KRX; 40 kDa, tetramer (about 200 kDa)
Question: Which results are given for B1?
Answer: Km (purified protein [5]): 70 mM; kcat (purified protein [5]): 10 s⁻¹; kcat/Km (purified protein [5]): 150 M⁻¹ s⁻¹; Km (purified protein [6]): 1.46 ± 0.01 mM; kcat (purified protein [6]): 370 ± 2 s⁻¹; kcat/Km (purified protein [6]): 255000 ± 7000 M⁻¹ s⁻¹; Km (purified protein [7]): 62 mM; kcat (purified protein [7]): 60 s⁻¹; kcat/Km (purified protein [7]): 1000 M⁻¹ s⁻¹
